# Experimental data: IntAct's records for PubMed 23395900
# B1: Structural maintenance of chromosomes protein 3 (Saccharomyces cerevisiae), P47037 (parent)
# chain: MYIKRVIIKGFKTYRNETIIDNFSPHQNVIIGSNGSGKSNFFAAIRFVLSDDYSNLKREERQGLIHQGSGGSVMSASVEIVFHDPDHSMILPSGVLSRGDDEVTIRRTVGLKKDDYQLNDRNVTKGDIVRMLETAGFSMNNPYNIVPQGKIVALTNAKDKERLQLLEDVVGAKSFEVKLKASLKKMEETEQKKIQINKEMGELNSKLSEMEQERKELEKYNELERNRKIYQFTLYDRELNEVINQMERLDGDYNNTVYSSEQYIQELDKREDMIDQVSKKLSSIEASLKIKNATDLQQAKLRESEISQKLTNVNVKIKDVQQQIESNEEQRNLDSATLKEIKSIIEQRKQKLSKILPRYQELTKEEAMYKLQLASLQQKQRDLILKKGEYARFKSKDERDTWIHSEIEELKSSIQNLNELESQLQMDRTSLRKQYSAIDEEIEELIDSINGPDTKGQLEDFDSELIHLKQKLSESLDTRKELWRKEQKLQTVLETLLSDVNQNQRNVNETMSRSLANGIINVKEITEKLKISPESVFGTLGELIKVNDKYKTCAEVIGGNSLFHIVVDTEETATLIMNELYRMKGGRVTFIPLNRLSLDSDVKFPSNTTTQIQFTPLIKKIKYEPRFEKAVKHVFGKTIVVKDLGQGLKLAKKHKLNAITLDGDRADKRGVLTGGYLDQHKRTRLESLKNLNESRSQHKKILEELDFVRNELNDIDTKIDQVNGNIRKVSNDRESVLTNIEVYRTSLNTKKNEKLILEESLNAIILKLEKLNTNRTFAQEKLNTFENDLLQEFDSELSKEEKERLESLTKEISAAHNKLNITSDALEGITTTIDSLNAELESKLIPQENDLESKMSEVGDAFIFGLQDELKELQLEKESVEKQHENAVLELGTVQREIESLIAEETNNKKLLEKANNQQRLLLKKLDNFQKSVEKTMIKKTTLVTRREELQQRIREIGLLPEDALVNDFSDITSDQLLQRLNDMNTEISGLKNVNKRAFENFKKFNERRKDLAERASELDESKDSIQDLIVKLKQQKVNAVDSTFQKVSENFEAVFERLVPRGTAKLIIHRKNDNANDHDESIDVDMDAESNESQNGKDSEIMYTGVSISVSFNSKQNEQLHVEQLSGGQKTVCAIALILAIQMVDPASFYLFDEIDAALDKQYRTAVATLLKELSKNAQFICTTFRTDMLQVADKFFRVKYENKISTVIEVNREEAIGFIRGSNKFAEV
# partner: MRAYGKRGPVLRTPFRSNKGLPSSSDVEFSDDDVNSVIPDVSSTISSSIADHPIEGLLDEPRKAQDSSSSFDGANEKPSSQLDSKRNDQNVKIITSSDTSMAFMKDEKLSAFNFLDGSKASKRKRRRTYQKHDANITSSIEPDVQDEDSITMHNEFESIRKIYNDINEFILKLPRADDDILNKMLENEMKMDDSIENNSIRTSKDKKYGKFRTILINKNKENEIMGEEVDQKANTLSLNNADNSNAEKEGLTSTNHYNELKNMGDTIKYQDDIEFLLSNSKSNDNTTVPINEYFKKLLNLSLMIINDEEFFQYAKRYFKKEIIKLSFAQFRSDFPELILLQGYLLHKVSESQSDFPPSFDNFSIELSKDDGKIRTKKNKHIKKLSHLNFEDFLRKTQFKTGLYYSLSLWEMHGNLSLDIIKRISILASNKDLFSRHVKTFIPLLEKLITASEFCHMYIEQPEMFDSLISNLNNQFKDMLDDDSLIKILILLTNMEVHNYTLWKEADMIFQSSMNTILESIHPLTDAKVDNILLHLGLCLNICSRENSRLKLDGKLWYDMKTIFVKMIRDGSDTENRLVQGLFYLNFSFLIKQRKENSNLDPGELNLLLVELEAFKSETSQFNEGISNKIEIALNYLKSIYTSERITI
# B2: Protein RAD61 (Saccharomyces cerevisiae), Q99359 (parent)
# chain: B1 partner
# partner: B1 chain
# Variants of: B1
# Settings: with rad61_yeast RAD61, Q99359
row,effect of a mutation on the interaction,Variant
1,decreasing interaction,L163A;L166A;D168A

# Variants of: B1
# Settings: with rad61_yeast RAD61, Q99359
# Remark: another data set of the same source
row,effect of a mutation on the interaction,Variant
1,decreasing interaction,L163D;L166D

# Variants of: B1
# Settings: with rad61_yeast RAD61, Q99359
# Remark: another data set of the same source
row,effect of a mutation on the interaction,Variant
1,decreasing interaction,K112N;K113N

# Variants of: B2
# Settings: with smc3_yeast SMC3, P47037
row,effect of a mutation on the interaction,Variant
1,decreasing interaction,K376Q;K377Q;K382Q;K383Q

# Variants of: B2
# Settings: with smc3_yeast SMC3, P47037
# Remark: another data set of the same source
row,effect of a mutation on the interaction,Variant
1,decreasing interaction,N493A;L532E;N622A

# Variants of: B2
# Settings: with smc3_yeast SMC3, P47037
# Remark: another data set of the same source
row,effect of a mutation on the interaction,Variant
1,decreasing interaction,N493A;L577R;N622A

# Variants of: B2
# Settings: with smc3_yeast SMC3, P47037
# Remark: another data set of the same source
row,effect of a mutation on the interaction,Variant
1,decreasing interaction,D271A;D272A

# Variants of: B2
# Settings: with smc3_yeast SMC3, P47037
# Remark: another data set of the same source
row,effect of a mutation on the interaction,Variant
1,decreasing interaction,N493A;N622A
